# Test results published in article PMC5561266.
# Molecular target: McpB ligand-binding domain (LBD) of Ralstonia pseudosolanacearum Ps29 (Ralstonia pseudosolanacearum Ps29)
# Assay: AUC
substance,measurement,value
McpB ligand-binding domain (LBD) of Ralstonia pseudosolanacearum Ps29 (domain or fragment),stoichiometry N,2
